Results: article PMC8882047
Where two headings read alike, the source gives them in different places.

Key:
[1] = target: human plasmin (purified) (human); test: enzyme inhibition titration
[2] = target: human plasmin (purified) (human); test: enzyme inhibition progress curves
[3] = target: human plasmin (purified) (human); test: enzyme inhibition titration; remark: listed apart in the source

| Molecule | stoichiometry of inhibition (SI) [1] | kon [2] | stoichiometry of inhibition (SI) [3] |
| --- | --- | --- | --- |
| miropin (recombinant, tag-free) (from UniProt G8UQY8 1-432) (natural protein) | 2.3 | – | – |
| human α2-antiplasmin (natural protein) NQEQVSPLTLLKLGNQEPGGQTALKSPPGVCSRDPTPEQTHRLARAMMAFTADLFSLVAQTSTCPNLILSPLSVALALSHLALGAQNHTLQRLQQVLHAGSGPCLPHLLSRLCQDLGPGAFRLAARMYLQKGFPIKEDFLEQSEQLFGAKPVSLTGKQEDDLANINQWVKEATEGKIQEFLSGLPEDTVLLLLNAIHFQGFWRNKFDPSLTQRDSFHLDEQFTVPVEMMQARTYPLRWFLLEQPEIQVAHFPFKNNMSFVVLVPTHFEWNVSQVLANLSWDTLHPPLVWERPTKVRLPKLYLKHQMDLVATLSQLGLQELFQAPDLRGISEQSLVVSGVQHQSTLELSEVGVEAAAATSIAMSRMSLSSFSVNRPFLFFIFEDTTGLPLFVGSVRNPNPSAPRELKEQQDSPGNKDFLQSLKGFPRGDKLFGPDLKLVPPMEEDYPQFGSPK | – | 1.3e+06 M⁻¹ s⁻¹ | 1.1 |
